The assay has as its target SARS-CoV-2 wild type RBD (319-541aa) (SARS-CoV-2, UniProt P0DTC2). The experiment in a line: SPR. The note with it: both partners purified.

A word on the Kd: it is the free concentration of one partner at which half of the binding sites on the other are occupied at equilibrium, for simple one-to-one binding. Read a low Kd as a tighter complex.

B1: Bamlanivimab (antibody, V domains shown)
VH: QVQLVQSGAEVKKPGSSVKVSCKASGGTFSNYAISWVRQAPGQGLEWMGRIIPILGIANYAQKFQGRVTITADKSTSTAYMELSSLRSEDTAVYYCARGYYEARHYYYYYAMDVWGQGTAVTVSS
VL: not shown
In turn, B1 gave a Kd of 1.4 nM. This lies in the single-digit nanomolar range.

For the origin of these results see paper PMC9569855 (International Journal of Molecular Sciences, 2022).
